Data on one molecule can be found in publication PMC8955265, “Systematic Discovery of FBXW7-Binding Phosphodegrons Highlights Mitogen-Activated Protein Kinases as Important Regulators of Intracellular Protein Levels” (International Journal of Molecular Sciences, 2022).

The assay addresses T1, Skp1-FBXW7 complex (human, UniProt P63208 1-149; Q969H0 263-707).
T1 construct: Skp1, truncated, residues 1-149; cDNA obtained from a HEK293T cell cDNA pool; human FBXW7, residues 263-707 (holds the WD40 domain); it was removed with TEV protease after Ni-NTA; also called purified FBXW7; FBXW7-Skp1 complex; source: E. coli Rosetta (DE3), co-expressed from a bicistronic plasmid (pMG950), purified (Ni-NTA, anion exchange, SEC); not shown: His6, N-terminal, cleaved
Description: fluorescence polarisation; direct titration: 50 nM CF-labeled CCNE peptide, increasing Skp1-FBXW7 complex; 20 mM Tris pH 8.0, 100 mM NaCl, 0.05% Brij35P, 2 mM TCEP; 384-well plates, 20 uL. Particulars: both partners purified. (Fluorescence polarisation rises when a labelled molecule tumbles more slowly, as on binding a larger partner.)

Where no end group is shown, it is not given here. [ ]: non-standard residue; d: D form. pT = C[C@@H](OP(=O)(O)O)[C@H](N)C(=O)O; pS = N[C@@H](COP(=O)(O)O)C(=O)O; CF = carboxyfluorescein

T1 sequence (P63208 1-149, chain 1 of 2): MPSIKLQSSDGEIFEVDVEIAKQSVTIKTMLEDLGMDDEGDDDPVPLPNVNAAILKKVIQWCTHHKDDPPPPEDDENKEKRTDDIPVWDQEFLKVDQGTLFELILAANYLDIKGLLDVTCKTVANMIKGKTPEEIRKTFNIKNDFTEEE
T1 sequence (Q969H0 263-707, chain 2 of 2): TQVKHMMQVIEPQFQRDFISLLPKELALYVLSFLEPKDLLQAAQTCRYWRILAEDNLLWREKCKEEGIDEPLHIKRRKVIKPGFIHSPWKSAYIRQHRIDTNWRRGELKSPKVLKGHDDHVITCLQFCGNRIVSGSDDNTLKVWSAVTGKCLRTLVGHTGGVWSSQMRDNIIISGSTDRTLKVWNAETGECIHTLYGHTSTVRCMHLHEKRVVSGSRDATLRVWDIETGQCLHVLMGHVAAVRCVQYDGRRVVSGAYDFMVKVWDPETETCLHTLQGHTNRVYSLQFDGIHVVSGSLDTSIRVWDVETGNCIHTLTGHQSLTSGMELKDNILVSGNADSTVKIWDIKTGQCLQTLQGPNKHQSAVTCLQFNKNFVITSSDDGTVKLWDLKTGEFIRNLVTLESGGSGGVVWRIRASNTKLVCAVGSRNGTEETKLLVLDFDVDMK

B1: carboxyfluorescein (CF) labeled CCNE peptide (CF-PSGLLpTPPQpSGKKQ) (peptide)
peptide: {CF}-PSGLL[pT]PPQ[pS]GKKQ
notes: bisphosphorylated degron motif of cyclin E1 (CCNE1); also called fluorescently labeled CCNE peptide; CCNE1 motif; source: synthetic peptide (GenScript)
Regarding B1, the binding result was “binds”.
